Article PMC5727457 (Nucleic Acids Research, 2017)

T1: Psy3 (S. cerevisiae, UniProt Q12318 1-242)
T1 sequence: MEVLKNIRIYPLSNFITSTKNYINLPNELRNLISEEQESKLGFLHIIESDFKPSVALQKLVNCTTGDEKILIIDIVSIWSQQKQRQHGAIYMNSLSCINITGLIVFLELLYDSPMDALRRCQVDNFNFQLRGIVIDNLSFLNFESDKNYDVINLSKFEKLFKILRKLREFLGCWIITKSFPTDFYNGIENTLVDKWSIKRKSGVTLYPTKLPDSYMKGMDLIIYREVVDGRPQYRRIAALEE

T2: His6-tagged Psy3-Csm2 heterodimer (S. cerevisiae, UniProt Q12318;P40465)
T2 sequence 1: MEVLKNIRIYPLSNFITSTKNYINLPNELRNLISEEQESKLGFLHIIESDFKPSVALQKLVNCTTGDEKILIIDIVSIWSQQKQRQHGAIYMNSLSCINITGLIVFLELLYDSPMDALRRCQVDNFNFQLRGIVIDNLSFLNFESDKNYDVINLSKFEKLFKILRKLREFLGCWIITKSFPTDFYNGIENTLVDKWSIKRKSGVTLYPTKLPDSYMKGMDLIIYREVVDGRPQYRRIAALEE
T2 sequence 2: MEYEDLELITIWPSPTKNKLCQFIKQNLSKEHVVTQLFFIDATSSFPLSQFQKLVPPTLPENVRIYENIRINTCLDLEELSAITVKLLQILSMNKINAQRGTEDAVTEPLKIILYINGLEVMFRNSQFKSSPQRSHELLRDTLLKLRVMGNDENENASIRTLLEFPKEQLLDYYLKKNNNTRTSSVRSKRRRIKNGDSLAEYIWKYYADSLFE

T3: His6-tagged Psy3Δ(1–7)-Csm2 heterodimer (S. cerevisiae, UniProt Q12318;P40465)
T3 sequence 1: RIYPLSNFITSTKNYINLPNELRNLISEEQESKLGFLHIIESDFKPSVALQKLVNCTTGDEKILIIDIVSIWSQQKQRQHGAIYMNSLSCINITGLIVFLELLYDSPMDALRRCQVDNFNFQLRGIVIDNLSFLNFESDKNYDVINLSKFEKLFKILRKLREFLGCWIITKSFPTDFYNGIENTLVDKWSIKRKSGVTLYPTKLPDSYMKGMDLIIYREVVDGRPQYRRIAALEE
T3 sequence 2: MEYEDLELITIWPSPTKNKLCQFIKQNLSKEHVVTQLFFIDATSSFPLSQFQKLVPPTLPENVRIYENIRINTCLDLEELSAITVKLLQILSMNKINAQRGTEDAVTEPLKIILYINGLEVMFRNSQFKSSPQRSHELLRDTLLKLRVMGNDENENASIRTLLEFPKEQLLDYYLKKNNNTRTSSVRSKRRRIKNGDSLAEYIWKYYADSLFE

B1: His6-Shu2 (natural protein)
chain: MSKDVIEYSKLFAKLVNTNDDTKLDDTIASFLYYMFPRELFIRAISLLESSDMFIYILDRVHNKEGNEHTSLIDVLVDEFYKGSSNSLLEYRLIVKDTNDGAPPILVDIAHWFCSCEEFCKYFHEALEKTDEKEELHDVLINEVDDHLQFSDDRFAQLDPHSLSKQWYFKFDKVCCSHLLAFSILLRSSINVLKFFTVNSNKVFVIAIDNIDEWLNLHINIVE

How the values were obtained:
Psy3 = target: T1, Psy3; assay: crystal structure
His6-Shu2 = target: B1; assay: pull-down
[1] = target: T2, His6-tagged Psy3-Csm2 heterodimer; assay: pull-down
[2] = target: T3, His6-tagged Psy3Δ(1–7)-Csm2 heterodimer; assay: pull-down

binding result (Psy3)	binding result [1]	Binder	other results
binds		Csm2 (natural protein) MEYEDLELITIWPSPTKNKLCQFIKQNLSKEHVVTQLFFIDATSSFPLSQFQKLVPPTLPENVRIYENIRINTCLDLEELSAITVKLLQILSMNKINAQRGTEDAVTEPLKIILYINGLEVMFRNSQFKSSPQRSHELLRDTLLKLRVMGNDENENASIRTLLEFPKEQLLDYYLKKNNNTRTSSVRSKRRRIKNGDSLAEYIWKYYADSLFE	
binds		Shu1 (natural protein) MQFEERLQQLVESDWSLDQSSPNVLVIVLGDTARKYVELGGLKEHVTTNTVAGHVASRERVSVVFLGRVKYLYMYLTRMQAQANGPQYSNVLVYGLWDLTATQDGPQQLRLLSLVLRQCLSLPSKVEFYPEPPSSSVPARLLRFWDHIIR	binding result (His6-Shu2): binds
	binds	Shu2-Shu1 heterodimer (His6 tag removed) (complex) chain 1: MSKDVIEYSKLFAKLVNTNDDTKLDDTIASFLYYMFPRELFIRAISLLESSDMFIYILDRVHNKEGNEHTSLIDVLVDEFYKGSSNSLLEYRLIVKDTNDGAPPILVDIAHWFCSCEEFCKYFHEALEKTDEKEELHDVLINEVDDHLQFSDDRFAQLDPHSLSKQWYFKFDKVCCSHLLAFSILLRSSINVLKFFTVNSNKVFVIAIDNIDEWLNLHINIVE chain 2: MQFEERLQQLVESDWSLDQSSPNVLVIVLGDTARKYVELGGLKEHVTTNTVAGHVASRERVSVVFLGRVKYLYMYLTRMQAQANGPQYSNVLVYGLWDLTATQDGPQQLRLLSLVLRQCLSLPSKVEFYPEPPSSSVPARLLRFWDHIIR	binding result [2]: binds
	binds	Shu2-Shu1(V51L) heterodimer (His6 tag removed) (complex) chain 1: MSKDVIEYSKLFAKLVNTNDDTKLDDTIASFLYYMFPRELFIRAISLLESSDMFIYILDRVHNKEGNEHTSLIDVLVDEFYKGSSNSLLEYRLIVKDTNDGAPPILVDIAHWFCSCEEFCKYFHEALEKTDEKEELHDVLINEVDDHLQFSDDRFAQLDPHSLSKQWYFKFDKVCCSHLLAFSILLRSSINVLKFFTVNSNKVFVIAIDNIDEWLNLHINIVE chain 2: MQFEERLQQLVESDWSLDQSSPNVLVIVLGDTARKYVELGGLKEHVTTNTLAGHVASRERVSVVFLGRVKYLYMYLTRMQAQANGPQYSNVLVYGLWDLTATQDGPQQLRLLSLVLRQCLSLPSKVEFYPEPPSSSVPARLLRFWDHIIR	
	binds	Shu2-Shu1(V51A) heterodimer (His6 tag removed) (complex) chain 1: MSKDVIEYSKLFAKLVNTNDDTKLDDTIASFLYYMFPRELFIRAISLLESSDMFIYILDRVHNKEGNEHTSLIDVLVDEFYKGSSNSLLEYRLIVKDTNDGAPPILVDIAHWFCSCEEFCKYFHEALEKTDEKEELHDVLINEVDDHLQFSDDRFAQLDPHSLSKQWYFKFDKVCCSHLLAFSILLRSSINVLKFFTVNSNKVFVIAIDNIDEWLNLHINIVE chain 2: MQFEERLQQLVESDWSLDQSSPNVLVIVLGDTARKYVELGGLKEHVTTNTAAGHVASRERVSVVFLGRVKYLYMYLTRMQAQANGPQYSNVLVYGLWDLTATQDGPQQLRLLSLVLRQCLSLPSKVEFYPEPPSSSVPARLLRFWDHIIR	
binds		B1	
